{"source": "patent US20210347846A1", "key": {"[1]": {"molecular_target": "transient receptor potential melastatin subfamily member 4 (TRPM4), mouse (mouse) (UniProt Q7TN37)", "sequence (Q7TN37 whole entry)": "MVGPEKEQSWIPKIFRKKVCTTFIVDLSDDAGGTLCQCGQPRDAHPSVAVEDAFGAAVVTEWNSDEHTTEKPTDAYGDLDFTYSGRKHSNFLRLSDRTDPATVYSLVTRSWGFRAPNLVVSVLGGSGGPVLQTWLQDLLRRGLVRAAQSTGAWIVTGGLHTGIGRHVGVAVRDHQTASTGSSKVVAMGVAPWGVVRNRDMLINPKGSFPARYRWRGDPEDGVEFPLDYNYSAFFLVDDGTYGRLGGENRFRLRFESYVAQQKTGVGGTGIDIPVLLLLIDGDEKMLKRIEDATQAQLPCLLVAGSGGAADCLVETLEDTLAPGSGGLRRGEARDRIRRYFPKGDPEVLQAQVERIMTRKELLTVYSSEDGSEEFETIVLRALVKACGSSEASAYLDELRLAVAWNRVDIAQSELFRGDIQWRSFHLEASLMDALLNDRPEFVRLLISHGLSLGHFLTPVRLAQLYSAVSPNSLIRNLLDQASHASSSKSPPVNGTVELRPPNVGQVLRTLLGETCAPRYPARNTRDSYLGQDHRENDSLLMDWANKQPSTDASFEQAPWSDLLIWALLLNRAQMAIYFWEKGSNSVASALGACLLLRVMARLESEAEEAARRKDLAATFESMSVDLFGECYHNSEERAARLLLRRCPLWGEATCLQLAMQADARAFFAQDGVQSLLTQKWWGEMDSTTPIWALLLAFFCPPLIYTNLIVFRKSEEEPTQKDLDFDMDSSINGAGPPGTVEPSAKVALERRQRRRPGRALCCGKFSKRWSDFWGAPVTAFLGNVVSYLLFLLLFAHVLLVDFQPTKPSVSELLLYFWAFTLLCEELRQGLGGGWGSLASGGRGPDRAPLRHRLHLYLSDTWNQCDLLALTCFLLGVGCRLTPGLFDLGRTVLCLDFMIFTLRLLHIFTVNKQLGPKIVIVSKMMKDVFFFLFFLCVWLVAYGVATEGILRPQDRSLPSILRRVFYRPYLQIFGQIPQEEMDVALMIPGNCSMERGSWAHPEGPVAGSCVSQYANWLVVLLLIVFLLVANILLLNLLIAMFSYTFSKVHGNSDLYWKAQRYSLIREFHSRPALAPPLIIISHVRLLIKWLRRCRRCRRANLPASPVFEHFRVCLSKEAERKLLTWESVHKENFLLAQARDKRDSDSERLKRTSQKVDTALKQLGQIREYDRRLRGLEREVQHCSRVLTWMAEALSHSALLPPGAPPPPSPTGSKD", "test": "co-immunoprecipitation with anti-TRPM4 antibody from cortical lysates of mice 2 h after i.p. injection of small-molecule compound P4 (40 mg/kg), against control mice"}, "[2]": {"molecular_target": "transient receptor potential melastatin subfamily member 4 (TRPM4), mouse (mouse) (UniProt Q7TN37)", "test": "co-immunoprecipitation with anti-TRPM4 antibody from cortical lysates of mice 6 h after i.p. injection of small-molecule compound P4 (40 mg/kg), against control mice"}}}
{"substance": "GRIN2B subunit of the NMDA receptor, mouse (from UniProt Q01097 27-1482)", "values": [{"measurement": "reduction in NMDA receptor/TRPM4 complex formation", "setting": "[1]", "result": 51, "unit": "%"}, {"measurement": "reduction in NMDA receptor/TRPM4 complex formation", "setting": "[2]", "result": 61, "unit": "%"}]}
